The values that follow come from patent publication US20150225704.

The target of the data set is myc-tagged full-length palmitoyl acyl transferase zinc-finger DHHC type containing 17 (zD17) (UniProt Q8IUH5).
Chain of myc-tagged full-length palmitoyl acyl transferase zinc-finger DHHC type containing 17 (zD17) (Q8IUH5 whole entry): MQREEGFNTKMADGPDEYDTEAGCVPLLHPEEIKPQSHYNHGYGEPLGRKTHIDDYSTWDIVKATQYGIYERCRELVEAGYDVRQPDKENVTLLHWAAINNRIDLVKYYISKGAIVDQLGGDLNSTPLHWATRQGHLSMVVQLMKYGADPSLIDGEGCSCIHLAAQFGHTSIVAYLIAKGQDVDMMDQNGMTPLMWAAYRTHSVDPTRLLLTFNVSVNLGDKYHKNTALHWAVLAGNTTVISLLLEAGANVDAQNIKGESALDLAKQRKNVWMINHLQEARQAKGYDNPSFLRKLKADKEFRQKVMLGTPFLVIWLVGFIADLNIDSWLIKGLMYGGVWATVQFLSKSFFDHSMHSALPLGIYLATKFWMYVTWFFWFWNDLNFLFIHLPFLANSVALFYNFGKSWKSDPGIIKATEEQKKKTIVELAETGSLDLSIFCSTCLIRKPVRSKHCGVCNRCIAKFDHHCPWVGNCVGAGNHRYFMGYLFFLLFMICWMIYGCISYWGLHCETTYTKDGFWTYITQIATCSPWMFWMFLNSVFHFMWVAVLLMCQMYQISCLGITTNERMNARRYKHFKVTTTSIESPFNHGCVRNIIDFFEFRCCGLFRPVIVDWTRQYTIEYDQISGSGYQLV

For the substance FLAG-kiMKK7 (kinase-inactive MKK7), the JNK3 phosphorylation result is listed as “resulting in attenuated JNK3 phosphorylation”.
